Measured values from US20230357354A1, “CD38-BINDING CD31 PEPTIDES AND USES THEREOF” (ENCEFA, priority 2020, published 2023).

What was measured:
[1] = biological target: recombinant His-tagged CD38 (human) (UniProt P28907); assay: Pepscan ELISA, LOOP7 array; His-tagged CD38 in solution, anti-His HRP
[2] = biological target: CD38 on cells of rat midbrain cultures (rat (cultures from Wistar rat embryos)) (UniProt Q64244); assay: cell-based or functional assay
Sequence of CD38 on cells of rat midbrain cultures (rat (cultures from Wistar rat embryos)) (Q64244 whole entry): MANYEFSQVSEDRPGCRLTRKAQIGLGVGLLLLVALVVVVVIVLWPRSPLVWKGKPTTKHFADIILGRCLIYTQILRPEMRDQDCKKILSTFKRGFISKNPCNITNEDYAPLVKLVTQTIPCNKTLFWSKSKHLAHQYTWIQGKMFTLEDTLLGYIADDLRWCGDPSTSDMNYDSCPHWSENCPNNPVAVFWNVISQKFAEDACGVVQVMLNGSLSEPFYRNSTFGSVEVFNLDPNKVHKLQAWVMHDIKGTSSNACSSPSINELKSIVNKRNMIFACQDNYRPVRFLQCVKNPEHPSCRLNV

Row | Substance | Value (Pepscan ELISA signal) [1] [mAU] | EC50, prevention of MPP^+-induced DA cell loss in rat midbrain cultures [2] [µg/mL]
1 | CD31 peptide CEYOVLVEC (LOOP7) | 651 | 
2 | murine sCD31 (SEQ ID NO: 18) (from UniProt Q08481 18-585) (ligand) |  | 0.036
